Source: patent publication US20100093028A1 (DANISCO US, published 2010)
Residue numbers refer to the chain shown, from its start. In names and notes the source's numbering stands. Each block holds one binder with its values, some of them ahead of it.

What was measured:
[1] = target: T1, vascular endothelial growth factor (UniProt P15692-4 27-191, limits assumed, biotin label (Example 5), site not stated); assay: BioVeris ECL competition with a labeled competitor; legend: +++ = IC50 about 2-10 µM
T1 construct: also called VEGF; VegF
Method: (§1) The resulting vectors were used to transform B. subtilis BG6006 host cells. Cultures were grown in 500 ml of MBD medium and the BBI species were purified essentially as described above and by Vogtentanz et al., 2007 (Protein Expr Purif 55:40-52 [2007]). BioVeris binding assays were performed essentially as outlined in Example 5 and by the manufacturer. Binding of the modified variant BBIs to their respective target proteins was measured using a BioVeris® binding assay, which is a competition assay that determines the binding of the modified variant BBIs to its target protein (e.g. VEGF, FGF5, TGFβ and TNFα) in the presence or absence of a labeled competitor. The competitor can be a labeled monoclonal antibody raised against the target protein or a labeled native receptor of the target protein. The electrochemiluminesent binding assays were performed essentially as described in Example 5. The apparent IC50s were determined from binding data by determining the concentration of the BBI species needed to reduce the BioVeris signal by one half. BBI scaffolds without the target binding peptide in the chymotrypsin inhibitory loop were used as negative controls.

[2] = target: T2, fibroblast growth factor 5 (UniProt P12034 21-268, limits assumed); assay: BioVeris ECL competition with a labeled competitor; legend: ++ = IC50 about 10-50 µM
T2 construct: also called FGF-5; FGF5
T2 sequence (looked up): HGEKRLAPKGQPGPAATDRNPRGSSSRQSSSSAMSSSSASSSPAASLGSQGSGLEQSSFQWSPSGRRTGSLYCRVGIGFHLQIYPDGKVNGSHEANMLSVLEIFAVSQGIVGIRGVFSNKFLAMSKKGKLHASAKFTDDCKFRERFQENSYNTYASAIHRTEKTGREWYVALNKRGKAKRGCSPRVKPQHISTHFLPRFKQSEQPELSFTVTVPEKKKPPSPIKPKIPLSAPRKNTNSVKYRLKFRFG
Method: as §1

[3] = target: T3, Transforming growth factor β1 (UniProt P01137 279-390); assay: as above
T3 construct: also called TGFβ1; TGFβ
Method: as §1

[4] = target: T3, Transforming growth factor β1; assay: BioVeris ECL competition; negative control for TGFβ binding
Tumor necrosis factor α [5] = target: T4, Tumor necrosis factor α (UniProt P01375 77-233); assay: BioVeris ECL competition with a labeled competitor; legend: ++ = IC50 about 10-50 µM
T4 construct: also called TNFα; TNF
Method: as §1

Tumor necrosis factor α [6] = target: T4, Tumor necrosis factor α; assay: BioVeris ECL competition with a labeled competitor; legend: + = IC50 about 50-250 µM
Method: as §1

[7] = target: T1, vascular endothelial growth factor; assay: BioVeris ECL competition with a labeled competitor; legend: ++ = IC50 about 10-50 µM
Method: as §1

Tumor necrosis factor α [8] = target: T4, Tumor necrosis factor α; assay: BioVeris ECL competition; negative control for TNFα binding
[9] = target: T1, vascular endothelial growth factor; assay: BioVeris ECL competition; wild-type negative control for VEGF binding
[10] = target: T2, fibroblast growth factor 5; assay: BioVeris ECL competition; wild-type negative control for FGF-5 binding

T4 sequence (P01375 77-233 limits assumed): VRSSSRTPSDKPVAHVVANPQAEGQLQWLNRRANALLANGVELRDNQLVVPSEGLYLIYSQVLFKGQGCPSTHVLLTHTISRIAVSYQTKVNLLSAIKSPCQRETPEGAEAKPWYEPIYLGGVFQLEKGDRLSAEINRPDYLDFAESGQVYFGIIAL
T3 sequence (P01137 279-390 limits assumed): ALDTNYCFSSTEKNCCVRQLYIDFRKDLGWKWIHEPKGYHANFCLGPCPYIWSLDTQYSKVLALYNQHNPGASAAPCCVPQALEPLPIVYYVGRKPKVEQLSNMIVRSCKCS
T1 sequence (P15692 other isoform, or with tags, fused parts or gaps limits assumed): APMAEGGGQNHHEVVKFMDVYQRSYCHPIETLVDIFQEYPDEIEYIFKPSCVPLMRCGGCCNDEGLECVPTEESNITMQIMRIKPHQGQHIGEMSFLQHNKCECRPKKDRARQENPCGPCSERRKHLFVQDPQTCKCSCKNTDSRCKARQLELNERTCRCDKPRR

- IC50 [1]: 2 to 10 µM
B1: BBIt-AV-A13I-L29P-A40K-F50T-V52A (designed binder)
chain: DPDDESSKPCCDQCICTKSNPPQCRCSDMRPNSCHSACKSCKCYNLYGWTCTCADITDFCYEPCKPSE
notes: also called TA5; quintuple variant

- IC50 [2]: 10 to 50 µM
B2: MM007-Q-BBIt-FGF-5 (designed binder)
chain: B1 chain with K42A, Y44R, N45T, L46Q, Y47P, G48Y, W49P, T50L
notes: also called BBIt-MM007-Q-A13I-L29P-F50T-V52A

- IC50 [3]: 10 to 50 µM
B3: MM021W-Q-BBIt-TGFβ1 (designed binder)
chain: B1 chain with K42A, Y44K, N45H, L46N, Y47V, G48D, T50L
notes: also called MM0212-Q-BBIt-TGF; BBIt-MM021W-Q-A13I-L29P-F50T-V52A

- IC50 [4]: > 250 µM
- IC50 [2]: 10 to 50 µM
B4: FGFps2-Q-BBIt-FGF-5 (designed binder)
chain: B1 chain with K42A, Y44T, N45W, L46I, Y47D, G48S, W49T, T50P
notes: also called BBIt-FGFps2-Q-A13I-L29P-F50T-V52A

- IC50 [3]: 10 to 50 µM
B5: WTQ-Q-BBIt-TGFβ1 (designed binder)
chain: B1 chain with K42A, Y44W, N45T, L46Q, Y47H, G48I, W49H, T50N
notes: also called BBIt-WTQ-Q-A13I-L29P-F50T-V52A

- IC50 [1]: 2 to 10 µM
B6: BBIt-AV-A13I-A40K-F50T-V52A (designed binder)
chain: B1 chain with P31L
notes: the entry as printed carries an N-terminal DP from the linker

- IC50 [1]: 2 to 10 µM
B7: BBIt-AV-A13I-S25K-M27A-L29R-S31E-A40K-F50Q-V52Q (designed binder)
chain: B1 chain with S27K, M29A, P31R, S33E, T52Q, A54Q
notes: the entry carries an N-terminal DP; also called QQ8

- IC50 [1]: 2 to 10 µM
B8: BBIt-AV-A13I-S25K-M27A-L29R-S31A-A40H-F50R-V52L (designed binder)
chain: B1 chain with S27K, M29A, P31R, S33A, K42H, T52R, A54L
notes: the entry carries an N-terminal DP; also called RL8

- IC50 [1]: 2 to 10 µM
B9: BBIt-AV-A13I-S25R-M27A-L29P-S31A-A40H-F50K-V52T (designed binder)
chain: B1 chain with S27R, M29A, S33A, K42H, T52K, A54T
notes: the entry carries an N-terminal DP; also called KT8

- IC50 [1]: 2 to 10 µM
B10: BBtc-AV (designed binder)
chain: DPSSKWEACCDRCACTKSIPPQCHCADIRLNSCHSACESCACYNLYGWTCRCFDITDFCYKPCSG
notes: also called BBItc-AV

B11: BBIt-TNFα-T1-A13I-S25R-M27A-L29P-S31A-F50K-V52T (designed binder)
chain: DPDDESSKPCCDQCICTKSNPPQCRCRDARPNACHSACKSCACRYWQDIPCKCTDITDFCYEPCKPSE
notes: also called BBIt-TNF-T1
- IC50 (Tumor necrosis factor α [5]): 10 to 50 µM

B12: BBIt-TNFα-T3-A13I-S25R-M27A-L29P-S31A-F50K-V52T (designed binder)
chain: B11 chain with R44D, Y45M, W46I, Q47M, D48V, I49S, P50I
notes: also called BBIt-TNF-T3
- IC50 (Tumor necrosis factor α [6]): 50 to 250 µM

- IC50 [7]: 10 to 50 µM
B13: BBIt-VEGF-V5-A13I-S25R-M27A-L29P-S31A-F50K-V52T (designed binder)
chain: B11 chain with R44K, Y45P, W46S, Q47S, D48A, I49S, P50S
notes: also called BBIt-AV-V5

B14: BBIt-TNFα-T2-A13I-S25R-M27A-L29P-S31A-F50K-V52T (designed binder)
chain: B11 chain with R44A, Y45P, W46E, Q47P, D48I, I49L, P50A
notes: also called BBIt-TNF-T2
- IC50 (Tumor necrosis factor α [6]): 50 to 250 µM

- IC50 [7]: 10 to 50 µM
B15: BBIt-VEGF-V3-A13I-S25R-M27A-L29P-S31A-F50K-V52T (designed binder)
chain: B11 chain with Y45P, W46T, Q47G, D48H, I49S, P50L
notes: also called BBIt-AV-V3

- IC50 [1]: 2 to 10 µM
B16: BBIt-VEGF-V4-A13I-S25R-M27A-L29P-S31A-F50K-V52T (designed binder)
chain: B11 chain with R44K, Y45H, W46S, Q47A, D48K, I49A, P50E
notes: also called BBIt-AV-V4

- IC50 [1]: 2 to 10 µM
B17: BBIt-VEGF-V2-A13I-S25R-M27A-L29P-S31A-F50K-V52T (designed binder)
chain: B11 chain with R44K, Y45T, W46N, Q47P, D48S, I49G, P50S
notes: also called BBIt-AV-V2

- IC50 [7]: 10 to 50 µM
B18: BBIt-VEGF-V1-A13I-S25R-M27A-L29P-S31A-F50K-V52T (designed binder)
chain: B11 chain with R44S, Y45K, W46H, Q47S, D48Q, P50T
notes: also called BBIt-AV-V1
- IC50 (Tumor necrosis factor α [8]): > 250 µM

- IC50 [1]: 2 to 10 µM
B19: BBIt-VEGF-V6-A13I-S25R-M27A-L29P-S31A-F50K-V52T (designed binder)
chain: B11 chain with R44P, Y45V, W46T, Q47K, D48R, I49V, P50H
notes: also called BBIt-AV-V6

- IC50 [1]: 2 to 10 µM
B20: BBIt-VEGKD-A13I-S25K-L29P-V52K (designed binder)
chain: DPDDESSKPCCDQCICTKSNPPQCRCKDMRPNSCHSACKSCICKYDLYWWCFCKDITDFCYEPCKPSE
notes: also called VegKD-Q

- IC50 [1]: 2 to 10 µM
B21: BBIt-AV (designed binder)
chain: DDESSKPCCDQCACTKSNPPQCRCSDMRLNSCHSACKSCACYNLYGWTCFCVDITDFCYEPCKPSE
notes: BBI-AV without its 5 C-terminal amino acids; also called truncated BBI-AV; unmodified BBIt-AV

- IC50 [1]: 2 to 10 µM
B22: BBdb-AV (designed binder)
chain: DPSESSKPCCDQCACTKSIPPQCRCTDVRLNSCHSACSSCACYNLYGWTCVCVDMKDFCYEPCK
notes: also called BBIdb-AV

- IC50 [9]: > 250 µM
- IC50 [10]: > 250 µM
B23: wild-type soybean Bowman-Birk protease inhibitor (other)
chain: DDESSKPCCDQCACTKSNPPQCRCSDMRLNSCHSACKSCICALSYPAQCFCVDITDFCYEPCKPSEDDKEN
notes: Negative control with the native chymotrypsin loop ALSYPAQ; also called sBBI; BBI

- IC50 [3]: 10 to 50 µM
B24: PEN3-Q-BBIt-TGFβ1 (designed binder)
chain: DPDDESSKPCCDQCICTKSNPPQCRCSDMRPNSCHSACKSCACPENINVLPCTCADITDFCYEPCKPSE
notes: also called BBIt-PEN3-Q-A13I-L29P-F50T-V52A
